The text below walks through data of publication PMC9272835.

In the test the target is trastuzumab. In words: BLI; trastuzumab (5 µg/mL) captured on anti-human IgG Fc (AHC) biosensors; serial dilutions of the masks or HER2 in solution; DPBS, 0.1% BSA, 0.02% Tween 20; global fit to a 1:1 model. (In BLI a coated tip is dipped into the sample, and binding shifts an interference pattern.)

B1: dAb (VHH)
VHH: EVQLVESGGGLVQAGDSLTLSCAASGRTFSSVAMGWFRQAPGKERKFVANISWNGDSTYYTDSVKGRFTISRDNAKNTVYLQMSSLKPEDTAVYYCAADVRWTGDGHRADYWGQGTQVTVSS
By Kd is commonly meant the free concentration of one partner at which half of the binding sites on the other are occupied at equilibrium, for simple one-to-one binding. A lower Kd goes with tighter binding. Usually koff stands for a measure of how fast the partners let go of each other. Read a high koff as a short-lived complex. On to B1, for which the dissociation constant (Kd) stood at 0.192 nM, the half-life of dissociation came to 3.3 h and the koff is 5.76e-05 s⁻¹.
